Like-named read-outs stand apart in the source and are kept apart here.

Experiment [1] concerns the target T1, marmoset monkey IL4Rα-his protein (marmoset monkey).
T1 construct: Custom made by Sino biological; no cleavage site stated; also called cal-IL4Rα-his; Cal-IL4Rα
T1 chain: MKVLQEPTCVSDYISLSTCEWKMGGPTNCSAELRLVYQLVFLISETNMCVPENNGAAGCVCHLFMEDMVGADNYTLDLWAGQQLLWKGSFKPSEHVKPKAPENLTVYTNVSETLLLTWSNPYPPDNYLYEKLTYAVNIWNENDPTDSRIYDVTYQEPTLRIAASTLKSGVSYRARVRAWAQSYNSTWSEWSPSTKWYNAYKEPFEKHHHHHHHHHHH
Kind of experiment: indirect ELISA on coated cal-IL4Rα-his.

Experiment [2] addresses T2, recombinant human IL4Rα-his protein (in house made) (human, UniProt P24394 26-232, limits assumed).
T2 construct: also called Human IL4Ra-his
Kind of experiment: competitive ELISA: antibody mixed with biotin human IL4Rα-his, competitor plate-coated Benchmark.

For experiment [3], the target named is T3, human IL4Rα expressed on 293F-IL4Rα cells (human, UniProt P24394 26-825).
T3 construct: whole, on cells; also called cell surface human IL4Rα
The experiment can be described thus: flow cytometry, 293F-IL4Rα cells. Here is the method: Then, 2×10⁵ cells per well in 96 well-plates were incubated in 100 μL of the anti-IL4Rα antibodies or controls of various concentrations (starting at 80 nM with a 4-fold serial dilution) in FACS buffer for 40 minutes on ice. […] Following an incubation of 40 minutes at 4° C. in dark, cells were washed three times and resuspended in FACS buffer. Fluorescence was measured using a Becton Dickinson FACS Canto II-HTS equipment. Data was analyzed using Graphpad Prism software and EC₅₀ values were reported.

The target of experiment [4] is human IL4Rα expressed on HEK293T-IL4Rα-STAT6-STAT6LUC-LB2 cells (human, UniProt P24394 26-825). The experiment can be described thus: cell-based or functional assay.
Experiment [5] has as its target T2, recombinant human IL4Rα-his protein (in …). The experiment can be described thus: capture ELISA, biotin-IL4Rα-his.
The target of experiment [6] is T4, cynomolgus monkey IL4Rα-his protein (cynomolgus monkey, UniProt A0A2K5V580 33-239).
T4 construct: Bought protein; also called Cynomolgus IL4Rα; Cyno-IL4Rα-his; not shown: his tag
Kind of experiment: indirect ELISA, coated cyno IL4Rα-his.

Experiment [7] deals with T2, recombinant human IL4Rα-his protein (in …). Kind of experiment: competitive ELISA, blocks biotin-IL4 binding to coated IL4Rα-his. Here is the method:
Serially diluted anti-IL4Rα antibodies or the controls (starting at 80 nM with a 4-fold serial dilution) in 2.5% w/v non-fatty milk in PBST, 100 μl per well, were added to the IL4Rα bound plates, and incubated with the human IL4Rα-his proteins at 37° C. for 40 minutes. Plates were washed 4 times using wash buffer, and then added and incubated for 40 minutes at 37° C. with 100 μl/well of 0.56 nM biotin-labeled human IL4 protein (Sino biological inc., Cat #11846-HNAE). Plates were washed again using wash buffer. Thereafter, the plates were added with 100 μl/well of streptavidin conjugated HRP (1:10000 dilution in PBST buffer, Jackson Immunoresearch, Cat #016-030-084) and incubated for 40 minutes at 37° C. Plates were washed again using wash buffer. Finally, TMB was added and the reaction was stopped using 1M H₂SO₄, and the absorbance was read at 450 nm. Data was analyzed using Graphpad Prism software and IC₅₀ values were reported.

The target in experiment [8] is T1, marmoset monkey IL4Rα-his protein. The experiment can be described thus: indirect ELISA, coated cal-IL4Rα-his.
Experiment [9] has as its target T2, recombinant human IL4Rα-his protein (in …). Kind of experiment: competitive ELISA: coated human IL4Rα-his, blocked ligand biotin human IL4.
Experiment [10] deals with T3, human IL4Rα expressed on 293F-IL4Rα …. Kind of experiment: flow cytometry on 293F-IL4Rα cells.
Experiment [11] concerns the target T2, recombinant human IL4Rα-his protein (in …). The experiment can be described thus: SPR (Biacore), antibody captured, IL4Rα-his flowed.
Experiment [12] deals with T4, cynomolgus monkey IL4Rα-his protein. The experiment can be described thus: indirect ELISA on coated cynomolgus IL4Rα-his.
Experiment [13] addresses T2, recombinant human IL4Rα-his protein (in …). The experiment can be described thus: competitive ELISA, blocks biotin-IL4Rα-his binding to coated Benchmark (competitor). The procedure:
The ability of the anti-IL4Rα antibodies of the disclosure to block benchmark-human IL4Rα binding was measured in a competitive ELISA assay. Briefly, the benchmark was coated on 96-well micro plates at 2 μg/mL in PBS, 100 μl per well, and incubated overnight at 4° C. The next day, plates were washed with wash buffer (PBS+0.05% w/v Tween-20, PBST), and blocked with 5% w/v non-fatty milk in PBST for 2 hours at 37° C. tiring plate blocking, the anti-IL4Rα antibodies of the disclosure or controls were diluted with biotin labeled human IL4Rα-his proteins (prepared in-house with SEQ ID NO: 57, 0.55 nM in 2.5% w/v non-fatty milk in PBST), starting at 100 nM with a 4-fold serial dilution, and incubated at 25° C. for 40 minutes. After plate washing, the antibody/IL4Rα-his mixtures were added to benchmark coated plates, 100 μl per well. After incubation at 37° C. for 40 minutes, plates were washed using wash buffer. Then the plates were added and incubated with 100 μl/well streptavidin conjugated HRP for 40 minutes at 37° C. to detect biotin-labeled human IL4Rα-his bound to plates. Plates were washed again using wash buffer. Finally, TMB was added and the reaction was stopped using 1M H₂SO₄, and the absorbance was read at 450 nm. Data was analyzed using Graphpad Prism software and IC₅₀ values were reported.

Experiment [14] has as its target T3, human IL4Rα expressed on 293F-IL4Rα …. Kind of experiment: flow cytometry on 293F-IL4Rα cells, blocked ligand biotin human IL4.
Experiment [15] concerns the target T2, recombinant human IL4Rα-his protein (in …). Kind of experiment: capture ELISA: antibody captured on anti-IgG Fc plate, biotin human IL4Rα-his detected.
Experiment [16] shares this target. Kind of experiment: SPR (Biacore), antibody captured, IL4Rα-his flowed. This is another data set of the same source.
The target of experiment [17] is T3, human IL4Rα expressed on 293F-IL4Rα …. Kind of experiment: flow cytometry, blocks biotin-IL4 binding to 293F-IL4Rα cells. Here is the method:
Then, 1×10⁵ cells per well in 96 well-plates were incubated in 100 μL of the anti-IL4Rα antibodies or controls of various concentrations (starting at 80 nM with a 4-fold serial dilution) in FACS buffer for 40 minutes on ice. The plates were washed twice with FACS buffer, and added and incubated for 40 minutes at 4° C. in dark with 100 μl/well 1.67 nM biotin-labeled human IL4 protein (Sino biological inc., Cat #11846-HNAE). The plates were washed twice with FACS buffer, and then added and incubated for 40 minutes at 4° C. in dark with 100 μl/well R-Phycoerythrin Streptavidin (1:500 dilution in FACS buffer, Jackson Immunoresearch, Cat #016-110-084). Cells were washed twice and resuspended in FACS buffer. Fluorescence was measured using a Becton Dickinson FACS Canto II-HTS equipment. Data was analyzed using Graphpad Prism software and IC₅₀ values were reported.

B1: huC2C1A1A1-V14 (antibody, human IgG4 S228P, kappa, V domains shown)
VH: EVQLVESGGGLVQPGGSLRLSCAASGFTFSTYGMSWVRQAPGKGLVWVATINSNGGSTSYPDSVKGRFTISRDNAKNTLYLQMNSLRAEDTAVYYCARFFRFRNAMDYWGQGTLVTVSS
VL: DIQMTQSPSSLSASVGQRVTITCRTSENIYSYLAWYQQKQGKPPRFLIYNAKTLAEGVPSRFSGSGSGTEFTLTITSLQAEDFGVYYCQHYYGPPTWTFGPGTKLEIKR
notes: Humanized, human IgG4/kappa
Take B1: the EC50 in [1] was 0.555 nM; in experiment [3] it was 0.39 nM; in experiment [5] it was 0.06 nM; in [6], 0.68 nM; in experiment [8] it was 0.55 nM; in experiment [10], 0.39 nM. Moreover, the 50% effective concentration (EC50) in [12] was 0.677 nM; in experiment [15], 0.0616 nM. Besides, the IC50 worked out at 0.171 nM in [2]; 2.17 nM in [7]; 2.17 nM in [9]; 0.17 nM in [13]; 0.578 nM in experiment [14]; 0.58 nM in experiment [17]. In experiment [4], the “Inhibition on IL4 induced STAT6 phosphorylation (IC50, nM)” value came to 0.64 nM. Further, the “Inhibition on IL13 induced STAT6 phosphorylation (IC50, nM)” value in [4] was determined as 0.73 nM. In addition, the results for the Kd in experiment [11] and in experiment [16] were 0.642 nM and under 0.0654 nM, respectively. The Dissociation % in experiment [16] came out at 0.8%. Further, the “End (RU)” value in experiment [16] was 50.5 RU. For the same molecule, the “Start (RU)” value in [16] came to 50.1 RU. For the same molecule, the koff in [16] is under 1e-05 s⁻¹. Besides, the kon in [16] was 153000 M⁻¹ s⁻¹.

B2: huC2C1A1A1-V15 (antibody, human IgG4, V domains shown)
VH: B1 VH
VL: DIQMTQSPSSLSASVGDRVTITCRTSENIYSYLAWYQQKPGKAPKFLVYNAKTLAEGVPSRFSGSGSGTDFTLTISSLQPEDFATYYCQHYYGPPTWTFGQGTKVEIKR
notes: Humanized, human IgG4/kappa
With B2, the EC50 in experiment [1] was 0.412 nM; in experiment [3] it was 0.31 nM; in experiment [5], 0.05 nM; in [6], 0.52 nM; in experiment [8] it was 0.41 nM; in [10], 0.311 nM. In addition, the EC50 in experiment [12] came out at 0.517 nM; in experiment [15], 0.0474 nM. Moreover, the IC50 was found to be 0.159 nM in [2]; 2.03 nM in [7]; 2.03 nM in experiment [9]; 0.16 nM in [13]; 0.502 nM in experiment [14]; 0.5 nM in experiment [17]. Besides, in experiment [4], the “Inhibition on IL4 induced STAT6 phosphorylation (IC50, nM)” value stood at 0.61 nM. Moreover, the “Inhibition on IL13 induced STAT6 phosphorylation (IC50, nM)” value in experiment [4] was determined as 0.6 nM. Also, the Kd in experiment [11] was 0.447 nM; in experiment [16], under 0.0435 nM. In addition, the Dissociation % in experiment [16] was found to be 0.29%. Also, in experiment [16], the “End (RU)” value turned out to be 69.2 RU. Moreover, the “Start (RU)” value in experiment [16] was 69 RU. The koff in [16] is under 1e-05 s⁻¹. The kon in experiment [16] came to 230000 M⁻¹ s⁻¹.
